{"source": "patent US20240059759A1", "key": {"[1]": {"molecular_target": "SARS-CoV-2 RBD (SinoBiological, Cat. No. 40592-V02H) (SARS-CoV-2) (UniProt P0DTC2)"}, "[2]": {"molecular_target": "SARS-CoV-2 RBD (SinoBiological, Cat. No. 40592-V02H) (SARS-CoV-2) (UniProt P0DTC2)", "experiment": "ELISA on RBD"}}, "data": [{"substance": "VHH-72 D61S", "values": [{"measurement": "fold enhanced binding", "setting": "[1]", "result": 3, "unit": "fold"}, {"measurement": "EC50", "setting": "[2]", "result": 0.17, "unit": "µg/mL"}]}]}
